The source of these data is patent US20220380471A1 (US Dept. of Health and Human Services, published 2022).

One test concerns the target T1, Irrelevant antigen.
T1 construct: negative control
The test is described as follows: ELISA; row Irrelevant antigen; well 1 of 3. The method, boiled down: (§1)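 Camel VHH nanobodies were isolated by phage panning on recombinant B7H3-Fc. After purification, their binding to immobilised B7H3 fusion proteins and non-B7H3 recombinant proteins was read out by ELISA and recorded as signal.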

For another test, the target named is T2, hB7H3-His (human, UniProt Q5ZPR3 29-461, limits assumed).
T2 construct: not shown: His tag
T2 sequence (looked up): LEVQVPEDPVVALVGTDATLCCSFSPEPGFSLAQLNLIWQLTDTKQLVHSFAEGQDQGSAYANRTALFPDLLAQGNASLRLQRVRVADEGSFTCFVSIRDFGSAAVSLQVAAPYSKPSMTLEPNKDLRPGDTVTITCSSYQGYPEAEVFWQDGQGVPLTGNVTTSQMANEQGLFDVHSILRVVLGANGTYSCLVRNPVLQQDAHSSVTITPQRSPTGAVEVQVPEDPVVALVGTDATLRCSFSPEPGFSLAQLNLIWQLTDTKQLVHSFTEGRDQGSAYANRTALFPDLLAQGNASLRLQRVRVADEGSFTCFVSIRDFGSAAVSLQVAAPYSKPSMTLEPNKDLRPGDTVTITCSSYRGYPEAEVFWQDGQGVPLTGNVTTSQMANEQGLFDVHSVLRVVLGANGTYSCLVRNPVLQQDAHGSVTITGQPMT
The test is described as follows: ELISA, purified VHH. Summed up:
as §1

For another test, the target named is T3, monkey B7H3-His (monkey).
T3 chain: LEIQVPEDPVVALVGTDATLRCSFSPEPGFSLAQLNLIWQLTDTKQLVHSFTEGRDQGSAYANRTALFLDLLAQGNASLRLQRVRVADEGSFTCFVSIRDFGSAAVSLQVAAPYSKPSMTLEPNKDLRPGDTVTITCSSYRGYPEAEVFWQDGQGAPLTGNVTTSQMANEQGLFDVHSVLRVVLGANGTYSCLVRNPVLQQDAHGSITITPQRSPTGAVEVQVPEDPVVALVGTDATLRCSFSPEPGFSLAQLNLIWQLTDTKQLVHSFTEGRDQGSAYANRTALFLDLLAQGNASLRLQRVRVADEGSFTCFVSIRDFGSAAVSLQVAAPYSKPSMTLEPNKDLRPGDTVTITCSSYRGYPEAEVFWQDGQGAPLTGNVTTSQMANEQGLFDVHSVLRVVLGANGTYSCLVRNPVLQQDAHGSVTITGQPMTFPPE
The test is described as follows: ELISA, purified VHH. Summed up: as §1
Background: ELISA stands for enzyme-linked immunosorbent assay.

In test [1] the target is T4, recombinant human B7H3-Fc protein (human, UniProt Q5ZPR3 29-466, limits assumed).
T4 construct: 154 kDa non-reduced, 77 kDa reduced; also called hB7H3-Fc; not shown: Fc part
T4 sequence (looked up): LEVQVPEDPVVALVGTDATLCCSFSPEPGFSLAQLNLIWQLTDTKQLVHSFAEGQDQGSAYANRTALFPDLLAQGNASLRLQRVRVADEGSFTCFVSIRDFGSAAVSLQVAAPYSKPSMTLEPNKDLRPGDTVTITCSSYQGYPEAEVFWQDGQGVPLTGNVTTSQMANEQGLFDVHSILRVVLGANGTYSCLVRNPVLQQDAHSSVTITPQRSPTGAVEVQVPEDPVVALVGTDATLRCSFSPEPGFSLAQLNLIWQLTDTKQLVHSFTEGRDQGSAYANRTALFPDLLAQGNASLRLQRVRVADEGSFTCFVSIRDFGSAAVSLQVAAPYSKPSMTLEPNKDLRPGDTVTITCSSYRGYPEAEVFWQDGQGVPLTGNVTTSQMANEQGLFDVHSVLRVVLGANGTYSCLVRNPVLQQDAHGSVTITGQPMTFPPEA
The test is described as follows: ELISA, purified VHH. Summed up: as §1

The next test has as its target T5, rat B7H3-His (rat, UniProt Q7TPB4 29-244, limits assumed).
T5 construct: not shown: His tag
T5 sequence (looked up): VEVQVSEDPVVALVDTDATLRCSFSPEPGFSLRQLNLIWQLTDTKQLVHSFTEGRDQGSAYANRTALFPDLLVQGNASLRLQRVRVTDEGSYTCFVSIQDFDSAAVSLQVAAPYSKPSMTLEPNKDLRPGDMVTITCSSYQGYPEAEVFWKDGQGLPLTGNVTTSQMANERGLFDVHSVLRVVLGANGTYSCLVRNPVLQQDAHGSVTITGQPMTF
The test is described as follows: ELISA, purified VHH. Summed up:
as §1

In a further test the target is Non-relevant antigen. The test is described as follows: ELISA, purified VHH. Summed up:
as §1

The target of test [2] is T6, B7H3 (CD276) on MC38-CD276+ cells.
T6 construct: whole, on cells; MC38-CD276KO cells served as the negative control; also called MC38-B7H3+
T6 sequence (Q5ZPR3 1-534, species assumed, looked up): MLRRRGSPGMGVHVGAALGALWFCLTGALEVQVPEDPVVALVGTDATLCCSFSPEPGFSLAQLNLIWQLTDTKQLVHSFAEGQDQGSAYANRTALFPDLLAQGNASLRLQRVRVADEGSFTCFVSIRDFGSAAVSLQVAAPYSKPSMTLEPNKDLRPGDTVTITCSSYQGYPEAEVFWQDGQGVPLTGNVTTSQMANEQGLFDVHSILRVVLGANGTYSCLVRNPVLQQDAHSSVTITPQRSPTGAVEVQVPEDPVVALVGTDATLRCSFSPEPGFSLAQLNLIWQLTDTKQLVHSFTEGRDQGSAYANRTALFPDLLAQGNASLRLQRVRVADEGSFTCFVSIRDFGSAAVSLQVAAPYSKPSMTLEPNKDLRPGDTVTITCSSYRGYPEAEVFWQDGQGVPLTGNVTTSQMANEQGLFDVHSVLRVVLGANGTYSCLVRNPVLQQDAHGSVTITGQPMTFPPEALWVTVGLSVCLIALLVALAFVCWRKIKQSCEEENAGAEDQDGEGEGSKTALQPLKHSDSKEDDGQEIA
The test is described as follows: flow cytometry on MC38-CD276+ cells, VHH at 50 ug/ml. For orientation: A flow cytometer gives signals particle by particle.

Test [3] addresses T4, recombinant human B7H3-Fc protein. The test is described as follows: ELISA; row B7H3-Fc; well 1 of 3. Summed up: as §1
Test [4] has as its target T6, B7H3 (CD276) on MC38-CD276+ cells. The test is described as follows: flow cytometry on MC38-CD276+ cells, VHH at 0.5 ug/ml.
Another test concerns the target IgG control. The test is described as follows: phage ELISA. The method, boiled down:
(§2)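 For 3 rounds, recombinant B7H3-Fc protein served as the panning target for camel VHH phage drawn from eight individual camels' libraries. Each entry gives the ELISA signal for binding of selected phage to an immobilised antigen, either human or other-species B7H3 or a control protein, measured by phage ELISA.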

Test [5] deals with T4, recombinant human B7H3-Fc protein. The test is described as follows: phage ELISA. The method, boiled down:
as §2

B1: RWB12 (VHH)
VHH: QVQLVESGGGSVQVGGSLRLSCAASGFTYNSYSVGWFRQAPGKEREGVAAINSGGSSTYYAASVKGRFTISRDNAKNTVYLQMNSLKPEDTAMYYCAARSPSPLTFQTRTLREDSYNYWGQGTQVTVSS
notes: Camel VHH; tag not described; also called camel antibody RWB12
As to B1, the figures for the “ELISA reading (name not given)” value (in the test with Irrelevant antigen; in test [3]) were 0.08 and 0.878, respectively. In addition, the ELISA signal in the test with hB7H3-His stood at 0.686; with monkey B7H3-His, 0.164; in test [1] it was 0.568; with rat B7H3-His, 0.0574; with Non-relevant antigen it was 0.0495; with IgG control, 0.164. Moreover, in test [5], the ELISA signal was found to be 2.48. In addition, the Positive rates was determined as 12% in test [2] and 0.23% in test [4].

B2: RWG8 (VHH)
VHH: DVQLVESGGGLVQPGGSLRLSCAASGFTFSRYWMGWFRQAPGKGVEWVSTINSGGGSTYYADSVKGRFTISRDNAKNTLYLQLNNLKTEDTAMYYCAKEQWRTGSRGQGTQVTVSS
notes: Camel VHH; tag not described; also called camel antibody RWG8
In the case of B2, the “ELISA reading (name not given)” value with Irrelevant antigen is 0.104; in test [3], 1.97. Moreover, the ELISA signal with hB7H3-His worked out at 1.04; in the test with monkey B7H3-His, 0.117; in test [1], 0.641; with rat B7H3-His, 0.0696; in the test with Non-relevant antigen, 0.0562; with IgG control, 0.101. In addition, the ELISA signal in test [5] came to 2.52. For the same molecule, the Positive rates came to 26.5% in test [2] and 0.1% in [4].

B3: RWC4 (VHH)
VHH: EVQLVESGGGSVQAGGSLRLSCVASEDSTSAMCMGWFRQAPGKEREGVACINPTGEVTWYGDSVKGRFTISRDTVKKIVYLQMNSLKPEDTAMYYCAARVTYGGDWSTDTDYEYWGQGTQVTVSS
notes: Camel VHH; tag not described; also called camel antibody RWC4
For B3, the “ELISA reading (name not given)” value in the test with Irrelevant antigen amounted to 0.0845; in [3], 2.01. Moreover, the ELISA signal in the test with hB7H3-His amounted to 2.44; in the test with monkey B7H3-His it was 0.288; in test [1] it was 2.02; with Non-relevant antigen, 0.0719; with IgG control, 0.0777; in test [5] it was 2.66. Also, the figures for the Positive rates in test [2] and in test [4] were 98.8% and 14.4%, respectively.

B4: RWG4 (VHH)
VHH: QVQLVQSGGGLVQPGGSLRLSCAASGFTFSVYWFYWVRQAPRQGLEWVSTIASNGSTYYSDSVKGRFTISRDNAKNTVYLQMNSLKPEDTAVYYCVSDPDYYSDYERAYKFWAQGTQVTVSS
notes: Camel VHH; tag not described; also called camel antibody RWG4
Turning to B4, the ELISA signal in the test with hB7H3-His is 2.55; with monkey B7H3-His, 1.81; in [1], 2.54; in the test with rat B7H3-His, 1.5; with Non-relevant antigen, 0.0541; with IgG control it was 0.103. The ELISA signal in test [5] was 2.13. For the same molecule, the Positive rates in test [2] was found to be 91.5%; in [4], 1.25%.
